Data on six molecules can be found in patent US20200101109A1 (LENTIGEN TECHNOLOGY, published 2020).

For assay [1], the target named is T1, recombinant human CD33 (human, UniProt P20138 18-259, limits assumed).
T1 construct: also called coated CD33
The assay can be described thus: ELISA, coated recombinant human CD33, purified His/Flag-tagged VH, anti-Flag-HRP. As to the method:
(§1) 50 μl of the diluted recombinant human CD33 in PBS at 2 ug/ml was coated in a 96-well plate at 4° C. overnight. Purified ScFv or VHs (from above) with His and Flag tags were serially diluted and added into the target protein coated wells. After washing, a 1:3000 diluted HRP conjugated anti-Flag antibody was added for 1 hr at RT. After washing, 3, 3, 5, 5′-Tetramethylbenzidine (TMB) substrate was added, 1N H₂SO₄ was added to stop the reaction after incubation at room temperature for 10 minutes, and the O.D. was read at 450 nm to quantify the relative ability of ScFv to bind CD33.
Background: In an ELISA, binding on a coated surface is turned into a signal by an enzyme label.

The target in assay [2] is T1, recombinant human CD33. The assay can be described thus: ELISA, coated recombinant human CD33, purified His/Flag-tagged ScFv, anti-Flag-HRP. How it is done:
as §1

T1 sequence (P20138 18-259 limits assumed): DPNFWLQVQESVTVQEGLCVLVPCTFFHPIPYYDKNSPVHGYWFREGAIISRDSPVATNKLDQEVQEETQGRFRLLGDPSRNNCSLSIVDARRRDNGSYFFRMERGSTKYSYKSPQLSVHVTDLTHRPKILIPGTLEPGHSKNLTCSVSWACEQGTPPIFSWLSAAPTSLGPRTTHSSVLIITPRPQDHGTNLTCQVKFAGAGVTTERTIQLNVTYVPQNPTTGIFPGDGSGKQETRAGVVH

B1: m1033-2 (VH-2) human anti-CD33 VH domain binder, soluble (VHH)
VHH: EVQLVESGGGLVQPGGSLRLSCAASGFTFSSYGMSWVRQAPRKGLEWIGEINHSGSTNYNPSLKSRVTISRDNSKNTLYLQMNSLRAEDTATYYCARPLNYYYYYMDVWGKGTTVTVSS
notes: Human heavy chain variable domain only (not camelid), from a phage library, expressed in E. coli HB2151 and purified on Ni-NTA; also called CD33 VH-2; not shown: His and Flag tags
As to B1, the binding result with recombinant human CD33 [1] is recorded as “binds”.

B2: m1033-9 (ScFv9) human anti-CD33 ScFv binder, soluble (scFv)
scFv: QVQLVQSGAEVKKPGESLRISCKGSGFSFPTYWIGWVRQMPGKGLEWMGIIYPGDSDTRYSPSFQGQVTISADKSISTAYLQWSSLKASDTAMYYCARLVGDGYNTGAFDIWGQGTMVTVSSGGGGSGGGGSGGGGSDIVMTHTPLSLSVTPGQPASISCKSSQSLLHSNGKTYLYWYLQKPGQPPQLLIYGASNRFSGVPDRFSGSGSGTDFTLKISRVEAEDVGVYYCMQSIQLPITFGQGTRLEIK
notes: also called CD33 ScFv 9; not shown: His and Flag tags
For B2, in the assay with recombinant human CD33 [2], the binding result was “binds”.

B3: m1033-15 (ScFv15) human anti-CD33 ScFv binder, soluble (scFv)
scFv: EVQLVQSGAEVKKPGESLKISCKGSGYSFTSYWIGWVRQMPGKGLEWMGIIYPGDSDTRYSPSFQGQVTISADKSISTAYLQWSSLKASDTAMYYCARLTTAGGMDVWGQGTTVTVSSGGGGSGGGGSGGGGSEIVLTQSPLSLPVTLGQPASISCRSSQSLVHSDGNTYLSWLHQRPGQPPRLLMYKISNRFSGVTDRFSGSGSGTDFTLKISRVEAEDVGVYYCMQGIHLPLTFGGGTKLEIK
notes: also called CD33 ScFv 15; not shown: His and Flag tags
For the molecule B3, the binding result with recombinant human CD33 [2] is on record as “binds”.

B4: m1033-12 (ScFv12) human anti-CD33 ScFv binder, soluble (scFv)
scFv: QVQLQQSGPGLVKPSQTLSLTCAISGDSVSSNSAAWNWIRQSPSRGLEWLGGTYYRSKWYNDYAVSVKSRIIINADTSKNQFSLQLNSVTPEDTAVYYCARGYYYDSTDWFDPWGQGTLVTVSSGGGGSGGGGSGGGGSSSELTQDPTVSVALGQTVRITCQGDSLRSYYASWYQQKPGQAPVLVIYGKNNRPSGIPDRFSGSSSGNTASLTITGAQAEDEADYYCSSRDGSGHPYLFGPGTKVTVL
notes: also called CD33 ScFv 12; not shown: His and Flag tags
For B4, the binding result with recombinant human CD33 [2] is listed as “binds”.

B5: m1033-4 (VH-4) human anti-CD33 VH domain binder, soluble (VHH)
VHH: EVQLVESGGGLVQPGGSLRLSCAASGFTFSSYGMSWVRQAPRQGLEWVANIKQDGSEKYYADSVKGRFTISRDNSKNTLYLQMNSLRAEDTATYYCAKENVDWGQGTLVTVSS
notes: Human heavy chain variable domain only (not camelid), from a phage library, expressed in E. coli HB2151 and purified on Ni-NTA; also called CD33_4; CD33 VH-4; not shown: His and Flag tags
Take B5: the binding result with recombinant human CD33 [1] was “binds”.

B6: m1033-10 (ScFv10) human anti-CD33 ScFv binder, soluble (scFv)
scFv: QVQLQQSGPGLVKPSQTLSLTCAISGDSVSSNTAAWNWIRQSPSRGLEWLGRTYYRSKWYNDYAVPVKSRITINPDTSKNQFSLQLNSVTPEDTAVYYCARETYYYGSGSYWDAFDIWGQGTTVTVSSGGGGSGSGGSGGGGSQSVVTQPPSVSAAPGQKVTISCSGSSSNIGNNYVSWYQQLPGTAPKLFIYKNNQRPSEVPDRFSGSKSGTSASLAISGLQSDDEADYYCAAWDDRLNGYVFGTGTKVTVL
notes: also called CD33 ScFv 10; not shown: His and Flag tags
Take B6: the binding result with recombinant human CD33 [2] is reported as “binds”.
